Results on three molecules are retold here after article PMC5286394, “Architecture of the yeast Elongator complex” (EMBO Reports, 2016).

Usually stoichiometry N stands for the number of molecules, sites or subunits per partner or assembly.

Data set [1] concerns the molecule itself. In words: negative-stain EM reconstruction with integrative modelling (EM map and cross-links); Elp123 sub-complex from Elp1-TAP purification, 0.01% glutaraldehyde, gel filtration; 1% uranyl acetate; C2 symmetry, 27 Å.
In data set [2] the target is T1, untagged full-length Elp1 (S. cerevisiae, UniProt Q06706 1-1349).
T1 construct: Elp1, Elongator subunit 1, S. cerevisiae; source: E. coli BL21 pSarRare, purified (NiNTA, TEV cleavage, second NiNTA, gel filtration); not shown: His6, N-terminal, cleaved; GST, N-terminal, cleaved
T1 sequence (looked up): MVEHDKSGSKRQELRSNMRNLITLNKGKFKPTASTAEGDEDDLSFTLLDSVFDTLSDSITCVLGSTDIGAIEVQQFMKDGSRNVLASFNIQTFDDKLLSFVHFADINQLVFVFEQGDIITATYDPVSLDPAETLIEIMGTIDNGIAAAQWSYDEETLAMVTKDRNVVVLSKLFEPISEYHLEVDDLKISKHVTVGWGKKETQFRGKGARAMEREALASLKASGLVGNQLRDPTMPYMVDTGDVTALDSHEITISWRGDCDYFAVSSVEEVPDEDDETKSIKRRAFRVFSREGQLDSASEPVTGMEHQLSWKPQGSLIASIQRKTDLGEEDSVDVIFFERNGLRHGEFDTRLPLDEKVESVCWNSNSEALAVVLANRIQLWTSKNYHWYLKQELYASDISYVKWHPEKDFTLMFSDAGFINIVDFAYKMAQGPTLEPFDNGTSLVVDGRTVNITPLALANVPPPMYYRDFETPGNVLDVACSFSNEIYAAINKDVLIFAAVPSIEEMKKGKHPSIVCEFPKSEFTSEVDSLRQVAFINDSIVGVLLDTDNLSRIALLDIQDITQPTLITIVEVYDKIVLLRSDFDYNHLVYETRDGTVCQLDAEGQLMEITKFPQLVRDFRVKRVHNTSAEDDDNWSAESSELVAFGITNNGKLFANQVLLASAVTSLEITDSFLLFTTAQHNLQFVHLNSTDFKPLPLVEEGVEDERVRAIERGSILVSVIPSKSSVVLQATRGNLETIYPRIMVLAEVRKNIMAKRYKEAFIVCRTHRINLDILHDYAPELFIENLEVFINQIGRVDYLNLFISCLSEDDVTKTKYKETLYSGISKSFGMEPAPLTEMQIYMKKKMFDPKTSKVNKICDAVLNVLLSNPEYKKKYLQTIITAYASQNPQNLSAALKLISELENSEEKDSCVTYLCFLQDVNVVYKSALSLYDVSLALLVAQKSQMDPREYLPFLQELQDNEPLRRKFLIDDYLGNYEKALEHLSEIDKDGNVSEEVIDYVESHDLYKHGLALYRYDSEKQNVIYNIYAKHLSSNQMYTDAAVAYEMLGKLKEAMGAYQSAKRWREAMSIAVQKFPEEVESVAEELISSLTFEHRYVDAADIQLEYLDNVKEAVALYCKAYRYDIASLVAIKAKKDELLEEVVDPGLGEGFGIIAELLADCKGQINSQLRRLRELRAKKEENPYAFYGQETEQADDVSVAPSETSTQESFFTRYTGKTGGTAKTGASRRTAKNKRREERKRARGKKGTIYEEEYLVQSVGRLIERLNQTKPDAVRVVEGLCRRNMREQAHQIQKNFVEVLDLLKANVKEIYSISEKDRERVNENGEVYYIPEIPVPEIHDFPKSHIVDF
Put plainly: pull-down; GST pull-down: 20 μg GST-tagged protein and increasing amounts of untagged partner with glutathione Sepharose, 2 h at 4°C, 20 mM Tris pH 7.5, 150 mM NaCl, 5 mM DTT, 0.1% Tween-20; five washes; SDS–PAGE, Coomassie. As to conditions: both partners purified.

Data set [3] addresses T2, Elp123 sub-complex within the endogenous holoElongator (Elp6-TAP purification) (S. cerevisiae (endogenous in strain …, UniProt Q06706 1-1349; P42935 1-788; Q02908 1-557).
T2 construct: Elp1, S. cerevisiae, endogenous protein; Elp2, S. cerevisiae, endogenous protein; Elp3, S. cerevisiae, endogenous protein; copies: 2 + 2 + 2
Put plainly: negative-stain EM reconstruction with integrative modelling (EM map and cross-links); holoElongator from Elp6-TAP purification, 0.01% glutaraldehyde, gel filtration; 1% uranyl acetate; 31 Å. The following applies: both partners purified. (In general: SEC sorts molecules by how far they enter the pores of the column.)

T2 sequence (P42935 whole entry, one chain of several): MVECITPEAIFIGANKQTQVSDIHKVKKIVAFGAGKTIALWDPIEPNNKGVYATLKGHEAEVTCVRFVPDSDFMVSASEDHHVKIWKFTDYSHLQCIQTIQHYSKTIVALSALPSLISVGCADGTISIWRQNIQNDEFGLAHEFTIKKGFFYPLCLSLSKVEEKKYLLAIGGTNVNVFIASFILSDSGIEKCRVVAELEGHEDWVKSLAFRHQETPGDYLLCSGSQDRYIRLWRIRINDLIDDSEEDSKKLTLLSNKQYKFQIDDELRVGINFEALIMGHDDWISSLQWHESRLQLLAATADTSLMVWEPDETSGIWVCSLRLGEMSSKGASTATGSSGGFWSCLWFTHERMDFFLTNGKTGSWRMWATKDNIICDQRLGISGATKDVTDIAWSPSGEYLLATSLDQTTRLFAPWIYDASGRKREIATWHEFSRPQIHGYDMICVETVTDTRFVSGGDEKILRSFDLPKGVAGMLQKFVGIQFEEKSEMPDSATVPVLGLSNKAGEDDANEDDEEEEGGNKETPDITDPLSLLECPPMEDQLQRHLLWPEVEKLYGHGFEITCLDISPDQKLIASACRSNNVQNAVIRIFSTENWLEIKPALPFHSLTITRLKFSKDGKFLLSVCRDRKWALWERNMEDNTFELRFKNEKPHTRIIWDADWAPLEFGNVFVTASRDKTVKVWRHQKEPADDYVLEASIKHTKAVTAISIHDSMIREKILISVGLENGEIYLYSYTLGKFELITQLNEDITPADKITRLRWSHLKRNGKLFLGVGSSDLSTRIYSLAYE

B1: endogenously TAP-tagged Elp1 (natural protein, UniProt Q06706 1-1349, looked up)
chain: MVEHDKSGSKRQELRSNMRNLITLNKGKFKPTASTAEGDEDDLSFTLLDSVFDTLSDSITCVLGSTDIGAIEVQQFMKDGSRNVLASFNIQTFDDKLLSFVHFADINQLVFVFEQGDIITATYDPVSLDPAETLIEIMGTIDNGIAAAQWSYDEETLAMVTKDRNVVVLSKLFEPISEYHLEVDDLKISKHVTVGWGKKETQFRGKGARAMEREALASLKASGLVGNQLRDPTMPYMVDTGDVTALDSHEITISWRGDCDYFAVSSVEEVPDEDDETKSIKRRAFRVFSREGQLDSASEPVTGMEHQLSWKPQGSLIASIQRKTDLGEEDSVDVIFFERNGLRHGEFDTRLPLDEKVESVCWNSNSEALAVVLANRIQLWTSKNYHWYLKQELYASDISYVKWHPEKDFTLMFSDAGFINIVDFAYKMAQGPTLEPFDNGTSLVVDGRTVNITPLALANVPPPMYYRDFETPGNVLDVACSFSNEIYAAINKDVLIFAAVPSIEEMKKGKHPSIVCEFPKSEFTSEVDSLRQVAFINDSIVGVLLDTDNLSRIALLDIQDITQPTLITIVEVYDKIVLLRSDFDYNHLVYETRDGTVCQLDAEGQLMEITKFPQLVRDFRVKRVHNTSAEDDDNWSAESSELVAFGITNNGKLFANQVLLASAVTSLEITDSFLLFTTAQHNLQFVHLNSTDFKPLPLVEEGVEDERVRAIERGSILVSVIPSKSSVVLQATRGNLETIYPRIMVLAEVRKNIMAKRYKEAFIVCRTHRINLDILHDYAPELFIENLEVFINQIGRVDYLNLFISCLSEDDVTKTKYKETLYSGISKSFGMEPAPLTEMQIYMKKKMFDPKTSKVNKICDAVLNVLLSNPEYKKKYLQTIITAYASQNPQNLSAALKLISELENSEEKDSCVTYLCFLQDVNVVYKSALSLYDVSLALLVAQKSQMDPREYLPFLQELQDNEPLRRKFLIDDYLGNYEKALEHLSEIDKDGNVSEEVIDYVESHDLYKHGLALYRYDSEKQNVIYNIYAKHLSSNQMYTDAAVAYEMLGKLKEAMGAYQSAKRWREAMSIAVQKFPEEVESVAEELISSLTFEHRYVDAADIQLEYLDNVKEAVALYCKAYRYDIASLVAIKAKKDELLEEVVDPGLGEGFGIIAELLADCKGQINSQLRRLRELRAKKEENPYAFYGQETEQADDVSVAPSETSTQESFFTRYTGKTGGTAKTGASRRTAKNKRREERKRARGKKGTIYEEEYLVQSVGRLIERLNQTKPDAVRVVEGLCRRNMREQAHQIQKNFVEVLDLLKANVKEIYSISEKDRERVNENGEVYYIPEIPVPEIHDFPKSHIVDF
notes: Elp1, S. cerevisiae, endogenous protein with TAP tag (Elp1-TAP::TRP1); also called Elp1-TAP
Consider B1, for which the “stoichiometry N” value in data set [1] is 2.

B2: GST-tagged Elp3 KAT domain (aa348–557) (domain or fragment, S. cerevisiae, UniProt Q02908 348-557, looked up)
chain: SYSANALVDLVARILALVPPWTRIYRVQRDIPMPLVTSGVDNGNLRELALARMKDLGTTCRDVRTREVGIQEVHHKVQPDQVELIRRDYYANGGWETFLSYEDPKKDILIGLLRLRKASKKYTYRKEFTSQRTSIVRELHVYGSVVPLHSRDPRKFQHQGFGTLLMEEAERIAKEEHGSEKISVISGVGVRNYYGKLGYELDGPYMSKRI
notes: Elp3, S. cerevisiae, lysine acetyl transferase (KAT) domain, residues 348–557; also called KAT domain of Elp3; source: E. coli BL21 pSarRare, purified (NiNTA, gel filtration); not shown: His6, N-terminal, kept; GST, N-terminal, kept
B2: the binding result in data set [2] is “binds”.

B3: hetero-hexameric Elp456 ring within the endogenous holoElongator (Elp6-TAP purification) (complex)
chain 1: MSFRKRGEILNDRGSGLRGPLLRGPPRTSSTPLRTGNRRAPGNVPLSDTTARLKKLNIADESKTKMGLDSSHVGVRPSPATSQPTTSTGSADLDSILGHMGLPLGNSVLVEEQSTTEFHSILGKLFAAQGIVHNRISDSSADKTRNGDTHVIVLSLNQMFAKELPGIYKGSRKQMKKNLISEEESKVTVQNLNETQRSTPSRYKDLKIAWKYKLADEKRLGSPDRDDIQQNSEYKDYNHQFDITTRLMPAPIASELTFIAPTQPVSTILSQIEQTIKRNDKKLIRIVIPSLLHPAMYPPKMFESSEIIGLMHGVRSLVKKYYERVVLFASISIDIITPPLLVLLRNMFDSVINLEPFNQEMTEFLERVYKSQPGKIQHGLVHILKLPVFTDRGEMRVLKSEWAFKNGRKKFEIEQWGIPVDDAEGSAASEQSHSHSHSDEISHNIPAKKTKISLDY
chain 2: MASSSHNPVILLKRILSLTESSPFILCLDSIAQTSYKLIQEFVHQSKSKGNEYPIVYISFETVNKPSYCTQFIDATQMDFVHLVKQIISYLPAATATQAKKHMVIIDSLNYISTEYITRFLSEIASPHCTMVATYHKDIKDENRTVIPDWNNNYPDKLTLLQFMATTIVDIDVVLTGTLDTEEVSELLNEFRIPRGLNNDIFQLRLVNKRKSGRSLEYDFIVNSNTHEYELLSTTKQEEESSSNGLETPEMLQGLTTFNLGTSNKQKLAKDQVALPFLEAQSFGQGGAIVYEYEKDDDYDEEDPYEDPF
chain 3: MGSVQRQDLVLFSDQSVLPAHFFQDSNSHNLFFITHQSCTQPLWMINALVETHVLGSPSSLNESSSSMLPSSTRSHAVLASFIHEQNYFTNSLNKLKIPSNNYNVLDFLSDFIVNNIHNKPRDKILSDVLAKFSAAIQNNPTDTIVIIEQPELLLSLVSGLTCSELNNKFITPLLRQCKVLIIVSNSDIFNIDEYDASVHSSNLQNFYKSSFIKSMINLNLNPLKTGFAKDVTGSLHVCRGGAPIATSNTSLHVVENEYLYLNEKESTKLFYR
notes: Elp4, S. cerevisiae, endogenous protein; Elp5, S. cerevisiae, endogenous protein; Elp6, S. cerevisiae, endogenous protein with TAP tag; Only part of the TAP tag is left after TEV elution; copies: 2 + 2 + 2
Take B3: the “stoichiometry N” value in data set [3] came to 1.
